Measured values as given in PMC11882435, “Thermodynamic modeling of RsmA - mRNA interactions capture novel direct binding across the Pseudomonas aeruginosa transcriptome”.

Biological target: RsmA (Pseudomonas aeruginosa, UniProt O69078 1-61)
Assay: filter binding; affinity unchanged vs WT; Filter binding: 10 mM Tris-HCl pH 7.5, 100 mM KCl, 10 mM MgCl2, 10 mM DTT, 10 ug/mL heparin, RNase inhibitor, 0.5 nM RNA, 37 C 30 min; Hill coefficient 2
Settings: protein: recombinant; expressed in E. coli BL21; chain copies: 2; label: 5'-32P

Sequence of RsmA (O69078 whole entry): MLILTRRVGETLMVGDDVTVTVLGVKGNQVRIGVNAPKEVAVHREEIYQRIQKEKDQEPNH

| Binder | binding result |
| --- | --- |
| rsaL BS1 mutant (ssRNA) RNA: GGGAUAAUAAACGUCCGAAAAGAUCAGAGCAAUGGCUUCACACGAGAGAACACAGCCCCAAAACAUGGCCUUCCGGGCAAAGGCCACCCGCACCGCCCGCACUGAAAGCCAGGAAACUUUCUGGAGCCGCU | binds |
| rsaL BS2 mutant (ssRNA) RNA: GGGAUAAUAAACGUCCGAAAAGAUCAGAGCAAUGGCUUCACACGAGAGAACACAGCCCCAAAACAUGGCCUUCCGGGCAAAGGCCACCCGCACCGCCCGACGGGAAAGCCAUACAACUUUCUGGAGCCGCU | binds |
| mvaT BS1 mutant (ssRNA) RNA: GGGAUAAUACUUACAUGCCCGCCACCGCCACUCAGCACAGACAAGGUACCUGACAUGUCCCUGAUCAACGAAUAUCGCGCCCACACAGAAGCCAUCAAGGAACUUCAGGAGCGCCUGAAGUCCCUGGAACAAGACGACAAACUGAAAAAAGAAC | binds |
| mvaT BS3 mutant (ssRNA) RNA: GGGAUAAUACUUACAUGCCCGCCACCGCCACUCAGCACAGACAAGGUACCUGACAUGUCCCUGAUCAACGAAUAUCGCGCCACGGAAGAAGCCAUCAAGGAACUUCAGGAGCGCCUGAAGUCCCUCUGACAAGACGACAAACUGAAAAAAGAAC | binds |
| mvaT BS2 mutant (ssRNA) RNA: GGGAUAAUACUUACAUGCCCGCCACCGCCACUCAGCACAGACAAGGUACCUGACAUGUCCCUGAUCAACGAAUAUCGCGCCACGGAAGAAGCCAUCCAAUUACUUCAGGAGCGCCUGAAGUCCCUGGAACAAGACGACAAACUGAAAAAAGAAC | binds |
